Reference: US20190177410A1
No end group written: not given here.

How the values were obtained:
[1] = biological target: full-length human APLNR (hAPLNR) (human) (UniProt P35414); assay: cell-based or functional assay
[2] = biological target: human Apelin receptor (hAPLNR) of PathHunter eXpress AGTRL1 CHO-K1 beta-Arrestin cells (human) (UniProt P35414); assay: cell-based or functional assay
[3] = biological target: full-length human APLNR (hAPLNR) (human) (UniProt P35414); assay: FACS on HEK293/CRE-luc/hAPLNR cells
[4] = biological target: T1, full length cynomolgus APLNR (MfAPLNR) (cynomolgus (Macaca fascicularis)); assay: FACS on HEK293/CRE-luc/MfAPLNR cells
T1 sequence: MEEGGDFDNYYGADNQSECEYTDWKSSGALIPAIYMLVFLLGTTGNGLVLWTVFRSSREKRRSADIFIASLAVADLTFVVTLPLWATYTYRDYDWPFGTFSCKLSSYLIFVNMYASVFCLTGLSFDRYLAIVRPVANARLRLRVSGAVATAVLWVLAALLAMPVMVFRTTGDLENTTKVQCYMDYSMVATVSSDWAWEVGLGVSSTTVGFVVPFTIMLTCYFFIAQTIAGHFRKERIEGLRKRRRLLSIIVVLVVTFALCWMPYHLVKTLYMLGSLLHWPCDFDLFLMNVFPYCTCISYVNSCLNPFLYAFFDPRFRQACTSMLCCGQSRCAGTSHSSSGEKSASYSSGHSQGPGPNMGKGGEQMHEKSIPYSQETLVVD

QRPRLSHKGPMPFGGGGSGGGGSGGGGS-{VH of anti‑myc 9E10 antibody} (antibody, part only; not given: anti-myc antibody chains, part only, ends and bridges not checked) [Anti-myc 9E10 Nter VH fusion with (G4S)3 linker (Apelin fused to an irrelevant anti-myc antibody)]
% Activation at 100 nM mAb (7.5 uM Forskolin), CRE-luc [1]: 53% | % Activation at 100 nM mAb (10 uM Forskolin), CRE-luc [1]: 37% | EC50 [M] (7.5 uM Forskolin), CRE-luc [1]: 1.1e-08 M | EC50 [M] (10 uM Forskolin), CRE-luc [1]: > 1e-07 M | % Activation at 500 nM antibody or Apelin-antibody fusion, PathHunter beta-Arrestin assay [2]: 6% | Binding Ratio of Geom. Mean to Unstained Cells [3]: 12 fold | Binding Ratio of Geom. Mean to Unstained Cells [4]: 3 fold
